These results are taken from US11015206B2, “Compositions and methods comprising sequences having hydroxyphenylpyruvate dioxygenase (HPPD) activity” (PIONEER HI-BRED INTERNATIONAL, INC., priority 2014, dated 2021).

As a reminder, the Km is the substrate concentration at which the rate is half of its maximum. For orientation: kcat means the number of substrate molecules converted per active site and unit of time at saturation.

Type in all cases: biochemical, Z. mays
Data set [1] has as its system 4-hydroxyphenylpyruvate dioxygenase (HPPD). Kind of data set: HPPD activity coupled assay with HGD; substrate saturation kinetic parameters (kcat, KM). As to conditions: substrate saturation kinetic analysis. A digest of the protocol: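 Coupled continuous assay: His-tagged HPPD (5 to 240 nM, E. coli-expressed, Ni-NTA-purified) with 50 nM P. aeruginosa HGD in 25 mM Hepes pH 7, 2 mM ascorbate, 10 μM FeSO4; maleylacetoacetate followed at 320 nm. KM and Vmax from Lineweaver-Burke fits over 3.33–100 μM HPP.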

Data set [2] shares this test system. Kind of data set: OFF rate ratio: release of inhibitor from pre-formed enzyme-inhibitor complex. As to conditions: for OFF rate ratio: Table 7, tembotrione, combinatorial variants; for Insensitivity, isoxaflutole (DKN), Rate ratio OFF: inhibitor diketonitrile form of isoxaflutole (DKN); for Insensitivity, mesotrione, Rate ratio OFF: inhibitor mesotrione; for Insensitivity, sulcotrione, Rate ratio OFF: inhibitor sulcotrione; for Insensitivity, tembotrione, Rate ratio OFF: inhibitor tembotrione; for Insensitivity, topramezone, Rate ratio OFF: inhibitor topramezone. A digest of the protocol:
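Inhibitor release from pre-formed complex (enzyme 7.2 μM, inhibitor 8 μM, 1 h RT) tracked as accelerating HPPD activity at 320 nm over 12 min, coupled via 50 nM HGD with 100 μM HPP at pH 7. OFF rate ratio: steady-state velocity relative to uninhibited initial velocity.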

The test system is the same in data set [3]. Kind of data set: Insensitivity parameter (ON × OFF) and trait fitness (ON × OFF × kcat/KM or × kcat). On the set-up: key to ON × OFF / Insensitivity, mesotrione, ON × OFF / Insensitivity, tembotrione, ON × OFF / Insensitivity, topramezone, ON × OFF / Insensitivity, sulcotrione, ON × OFF / Insensitivity, isoxaflutole (DKN), ON × OFF: insensitivity = ON rate ratio × OFF rate ratio (surrogate for KD). As to conditions: for Insensitivity, isoxaflutole (DKN), ON × OFF / Insensitivity, isoxaflutole (DKN), Trait fitness: inhibitor diketonitrile form of isoxaflutole (DKN); for Insensitivity, mesotrione, ON × OFF / Insensitivity, mesotrione, Trait Fitness: inhibitor mesotrione; for Insensitivity, sulcotrione, ON × OFF / Insensitivity, sulcotrione, Trait fitness: inhibitor sulcotrione; for Insensitivity, tembotrione, ON × OFF / Insensitivity, tembotrione, Trait fitness: inhibitor tembotrione; for Insensitivity, topramezone, ON × OFF / Insensitivity, topramezone, Trait Fitness: inhibitor topramezone. A digest of the protocol: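 Trait fitness combines catalysis and insensitivity as kcat/KM × ON rate ratio × OFF rate ratio. The insensitivity parameter is the product of ON and OFF rate ratios, used in place of KD because the ON rate ratio is inverse.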

The mark [4] stands for this setting: Table 7, tembotrione, combinatorial variants.

B1: P056028-G-01R (protein)
chain: MGPTPTATAAGAAVAAASAAEQAAFRLVGHRNFVRFNPRSDRFQTLAFHHVELWCADAASAAGRFSFALGVPLAARSDLSTGNSAHASLLLRSGSLSLLFTAPYAHGADAATAALPSFSAAAARRFAADHGLAVRAVALRVADAEDAFRASVAAGARPAFGPVDLGRGFRLAEVELYGDVVLRYVSYPDGAAGEPFLPGFEGVASPGAADLGLNRFDHIVGNVPELAPAAAYMAGFTGFHEFAEFTTEDVGTTESGLNSMALANNSENVLLPLNEPVHGTKRRSQIQTFLDHHGGPGVQHIALASDDVLRTLREMRARSAMGGFEFLPPPLSDYYDGVRKCAGDVLTEAQINECQELGVMVDRDDEGVLLQIFTKPVGDRPTFFLEIIQRIGCREKDEKGQEYQKGGCGGFGKGNFGQLFKSIEDYEKSLEKKRAAAAATAQGS
modifications: Zea mays variant form created by artificial means.
Consider B1, for which, in data set [1], the Km is 2020 nM and the kcat was 70.8 min⁻¹. In addition, in data set [2], the OFF rate ratio is reported as 0.280; the “Insensitivity, isoxaflutole (DKN), Rate ratio OFF” value is given as 0.38; the “Insensitivity, mesotrione, Rate ratio OFF” value was 1.00; the “Insensitivity, sulcotrione, Rate ratio OFF” value is listed as 1.11. Moreover, in data set [2], the “Insensitivity, tembotrione, Rate ratio OFF” value was determined as 0.28 and the “Insensitivity, topramezone, Rate ratio OFF” value is 0.53. Further, in data set [3] (Megatable 3, shuffled variants), the “ON × OFF” value is reported as 0.201 and the “ON × OFF × kcat” value was determined as 14.24. Further, in data set [3] (setting [4]), the “ON × OFF” value worked out at 0.201 and the “ON × OFF × kcat” value is recorded as 14.24. For the same molecule, in data set [3], the “Insensitivity, isoxaflutole (DKN), ON × OFF” value was 0.29; the “Insensitivity, isoxaflutole (DKN), Trait fitness” value is 3.98; the “Insensitivity, mesotrione, ON × OFF” value amounted to 0.73; the “Insensitivity, mesotrione, Trait Fitness” value came to 25.6. Besides, in data set [3], the “Insensitivity, sulcotrione, ON × OFF” value worked out at 0.83; the “Insensitivity, sulcotrione, Trait fitness” value is reported as 11.5; the “Insensitivity, tembotrione, ON × OFF” value is 0.20; the “Insensitivity, tembotrione, Trait fitness” value was 7.09. For the same molecule, in data set [3], the “Insensitivity, topramezone, ON × OFF” value was found to be 0.43 and the “Insensitivity, topramezone, Trait Fitness” value is 5.91.

B2: P056028-D-03 (protein)
chain: MGPTPTATAAGAAVAAASAAEQAAFRLVGHRNFVRFNPRSDRFQTLAFHHVELWCADAASAAGRFSFALGVPLAARSDLSTGNSAHASLLLRSGSLSLLFTAPYAHGADAATAALPSFSAAAARRFAADHGLAVRAVALRVADAEDAFRASVAAGARPAFGPVDLGRGFRLAEVELYGDVVMRYVSYPDGAAGEPFLPGFEGVASPGAADYGLNRFDHIVGNVPELAPAAAYMAGFTGFHEFAEFTTEDVGTTESGLNSMALANNSENVLLPLNEPVHGTKRRSQIQTFLDHHGGPGVQHIALASDDVLRTLREMRARSAMGGFEFLPPPLSDYYDGVRRCAGDVLTEAQINECQELGVMVDRDDEGVLLQIFTKPVGDRPTFFLEIIQRIGCMEKDEKGQEYQKGGCGGFGKGNFGQLFKSIEDYEKSLEAKQAAAAATAQGS
modifications: Zea mays variant form created by artificial means.
In the case of B2, in data set [1], the Km came to 2080 nM and the kcat is 44.2 min⁻¹. Moreover, in data set [2], the OFF rate ratio was determined as 0.453; the “Insensitivity, isoxaflutole (DKN), Rate ratio OFF” value came to 0.40; the “Insensitivity, mesotrione, Rate ratio OFF” value is on record as 1.00; the “Insensitivity, sulcotrione, Rate ratio OFF” value stood at 1.11. In data set [2], the “Insensitivity, tembotrione, Rate ratio OFF” value came out at 0.45 and the “Insensitivity, topramezone, Rate ratio OFF” value is recorded as 0.58. In addition, in data set [3] (Megatable 3, shuffled variants), the “ON × OFF” value was 0.349 and the “ON × OFF × kcat” value is given as 6.83. Besides, in data set [3] (setting [4]), the “ON × OFF” value was 0.349 and the “ON × OFF × kcat” value turned out to be 6.83. For the same molecule, in data set [3], the “Insensitivity, isoxaflutole (DKN), ON × OFF” value is 0.31; the “Insensitivity, isoxaflutole (DKN), Trait fitness” value was determined as 6.51; the “Insensitivity, mesotrione, ON × OFF” value was found to be 0.68; the “Insensitivity, mesotrione, Trait Fitness” value was found to be 14.5. In addition, in data set [3], the “Insensitivity, sulcotrione, ON × OFF” value was determined as 0.84; the “Insensitivity, sulcotrione, Trait fitness” value turned out to be 17.9; the “Insensitivity, tembotrione, ON × OFF” value is 0.35; the “Insensitivity, tembotrione, Trait fitness” value was found to be 7.44. In data set [3], the “Insensitivity, topramezone, ON × OFF” value was found to be 0.46 and the “Insensitivity, topramezone, Trait Fitness” value came out at 9.88.

B3: P056028-A-03 (protein)
chain: MGPTPTATAAGAAVAAASAAEQAAFRLVGHRNFVRFNPRSDRFQTLAFHHVELWCADAASAAGRFSFALGVPLAARSDLSTGNSAHASLLLRSGSLSLLFTAPYAHGADAATAALPSFSAAAARRFAADHGLAVRAVALRVADAEDAFRASVAAGARPAFGPVDLGRGFRLAEVELYGDVVLRYVSYPDGGAGEPFLPGFEGVASPGAADLGLSRFDHIVGNVPELAPAAAYMAGFTGFHEFAEFTTEDVGTTESGLNSMALANNSENVLLPLNEPVHGTKRRSQIQTFLDHHGGPGVQHIALASDDVLRTLREMRARSAMGGFEFLPPPLSDYYDGVRRCAGDVLTEAQINECQELGVMVDRDDEGVLLQIFTKPVGDRPTFFLEIIQRIGCMEKDEKGQEYQKGGCGGFGKGNFGQLFKSIEDYEKSLERKRAAAAATAQGS
modifications: Zea mays variant form created by artificial means.
Turning to B3, in data set [1], the Km was 2980 nM and the kcat came out at 62.8 min⁻¹. For the same molecule, in data set [2], the OFF rate ratio was 0.243; the “Insensitivity, isoxaflutole (DKN), Rate ratio OFF” value came to 0.43; the “Insensitivity, mesotrione, Rate ratio OFF” value was determined as 1.00; the “Insensitivity, sulcotrione, Rate ratio OFF” value was 0.93. Besides, in data set [2], the “Insensitivity, tembotrione, Rate ratio OFF” value is given as 0.40 and the “Insensitivity, topramezone, Rate ratio OFF” value amounted to 0.47. Also, in data set [3] (Megatable 3, shuffled variants), the “ON × OFF” value is reported as 0.181 and the “ON × OFF × kcat” value amounted to 4.36. For the same molecule, in data set [3] (setting [4]), the “ON × OFF” value is 0.181 and the “ON × OFF × kcat” value was 4.36. Further, in data set [3], the “Insensitivity, isoxaflutole (DKN), ON × OFF” value was found to be 0.34; the “Insensitivity, isoxaflutole (DKN), Trait fitness” value was determined as 7.25; the “Insensitivity, mesotrione, ON × OFF” value was found to be 0.70; the “Insensitivity, mesotrione, Trait Fitness” value was found to be 14.8. Also, in data set [3], the “Insensitivity, sulcotrione, ON × OFF” value is on record as 0.75; the “Insensitivity, sulcotrione, Trait fitness” value is 15.7; the “Insensitivity, tembotrione, ON × OFF” value stood at 0.32; the “Insensitivity, tembotrione, Trait fitness” value stood at 6.81. Also, in data set [3], the “Insensitivity, topramezone, ON × OFF” value was determined as 0.38 and the “Insensitivity, topramezone, Trait Fitness” value came out at 7.97.

B4: P056028-B-02 (protein)
chain: MGPTPTATAAGAAVAAASAAEQAAFRLVGHRNFVRFNPRSDRFQTLAFHHVELWCADAASAAGRFSFALGVPLAARSDLSTGNSAHASLLLRSGSLSLLFTAPYAHGADAATAALPSFSAAAARRFAADHGLAVRAVALRVADAEDAFRASVAAGARPAFGPVDLGRGFRLAEVELYGDVVLRYVSYPDGAAGEPFLPGFEGVASSGAADYGLSRFDHIVGNVPELAPAAAYMAGFTGFHEFAEFTTEDVGTTESGLNSMALANNSENVLLPLNEPVHGTKRRSQIQTFLDHHGGPGVQHIALASDDVLRTLREMRARSAMGGFEFLPPPLSDYYDGVRRCAGDVLTEAQINECQKLGVMVDRDDEGVLLQIFTKPVGDRPTFFLEIIQRIGCMEKDEKGQEYQKGGCGGFGKGNFGQLFKSIEDYERSLEAKQAAAVATAQGS
modifications: Zea mays variant form created by artificial means.
For the molecule B4, in data set [1], the Km came out at 3000 nM and the kcat worked out at 58.7 min⁻¹. For the same molecule, in data set [2], the OFF rate ratio is 0.469; the “Insensitivity, isoxaflutole (DKN), Rate ratio OFF” value stood at 0.43; the “Insensitivity, mesotrione, Rate ratio OFF” value was determined as 1.00; the “Insensitivity, sulcotrione, Rate ratio OFF” value is 1.00. In data set [2], the “Insensitivity, tembotrione, Rate ratio OFF” value amounted to 0.47 and the “Insensitivity, topramezone, Rate ratio OFF” value turned out to be 0.53. Further, in data set [3] (Megatable 3, shuffled variants), the “ON × OFF” value turned out to be 0.375 and the “ON × OFF × kcat” value is recorded as 10.58. In data set [3] (setting [4]), the “ON × OFF” value came out at 0.375 and the “ON × OFF × kcat” value is 10.58. Besides, in data set [3], the “Insensitivity, isoxaflutole (DKN), ON × OFF” value stood at 0.35; the “Insensitivity, isoxaflutole (DKN), Trait fitness” value is 6.78; the “Insensitivity, mesotrione, ON × OFF” value turned out to be 0.63; the “Insensitivity, mesotrione, Trait Fitness” value turned out to be 12.3. In addition, in data set [3], the “Insensitivity, sulcotrione, ON × OFF” value was determined as 0.81; the “Insensitivity, sulcotrione, Trait fitness” value is reported as 15.8; the “Insensitivity, tembotrione, ON × OFF” value came to 0.37; the “Insensitivity, tembotrione, Trait fitness” value came to 7.35. Also, in data set [3], the “Insensitivity, topramezone, ON × OFF” value came to 0.42 and the “Insensitivity, topramezone, Trait Fitness” value came out at 8.17.
